These results are taken from PMC5564421.

The target in test [1] is WT* iso-1-Cytc (K72A variant of yeast iso-1-cytochrome c, with C102S) (yeast). The test can be described thus: SEC.
The target is the same in test [2]. The test can be described thus: crystal structure.
Test [3] has the same target. In words: SEC. The source holds these as a separate data set.
For test [4] the target is unchanged. In words: SEC. This is another data set of the same source.
The target is the same in test [5]. The test can be described thus: SEC. The source holds these as a separate data set.
The target is the same in test [6]. The test can be described thus: SEC. This is another data set of the same source.
In test [7] the target is Cytc from equine heart (equine) (UniProt P00004). In words: SEC.
For test [8] the target is unchanged. The test can be described thus: SEC. This is another data set of the same source.

Where two headings read alike, the source gives them in different places.

Chain of Cytc from equine heart, P00004 1-105 (natural protein; other documents disagree on this pair) (P00004 whole entry): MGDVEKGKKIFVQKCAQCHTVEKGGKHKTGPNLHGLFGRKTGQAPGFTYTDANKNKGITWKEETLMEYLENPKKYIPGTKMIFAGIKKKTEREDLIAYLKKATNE

With “WT* iso-1-Cytc (K72A variant of yeast iso-1-cytochrome c, with C102S) (natural protein)”, the dissociation rate constant (koff) in test [1] was 0.0034 s⁻¹; in test [3], 6.5e-06 s⁻¹; in test [4], 1.6e-05 s⁻¹; in test [5], 6.1e-05 s⁻¹; in test [6], 0.00055 s⁻¹. The stoichiometry N in test [2] came to 2.
In test [7], “Cytc from equine heart, P00004 1-105 (natural protein; other documents disagree on this pair)” gave an off-rate (koff) of 1.6e-06 s⁻¹. In test [8], this substance gave a dissociation rate constant (koff) of 1.5e-05 s⁻¹ and a lifetime of the dimer of 7.4 days.
